The record followed here is patent US6858210B1, “Therapeutic and diagnostic domain 1 β2GPI polypeptides and methods of using same” (La Jolla Pharmaceutical Co., priority 1998, dated 2005).

Experiment [1] deals with human β2GPI-dependent antiphospholipid antibody. Kind of experiment: Micropanning of mutant domain 1 phage, patient antibodies. The format is binding. Conditions: for μpan score: Table 7A; for Micropan score: Table 7B.
A further experiment has as its system rabbit anti-human β2GPI. Kind of experiment: Micropanning of mutant domain 1 phage, rabbit antibody. The following applies: for μpan score: Table 7A; for Micropan score: Table 7B. Details: key: 0 (<10 colonies) to 4+ (confluent) semiquantitative colony score. The format is binding. The method, then:
Error prone PCR was carried out as follows. Domain 1 of human β2GPI was amplified by PCR under conditions that enhance the error rate of Taq polymerase. The primers were such that amino acids 1-64 were amplified. A Sfc 1 restriction site was incorporated as part of amino acid 1. At the 3′ end a Sal 1 restriction site was incorporated after amino acid 64. The PCR reaction was done as described by Leung et al. (1989) Technique 1:11, using 0.25 mM MnCl2. The PCR product was digested with Sfc 1 and Sal 1 and cloned into fd-tet-DOG2 that had been digested with Apal 1 and Sal 1. This positions domain 1 at the N-terminus of pill immediately after the pill signal sequence. The ligation reaction was electroporated in E. coli K91. Phage were harvested and titered by standard methods. Resulting phage clones were assayed using a micropanning technique.
Immulon type 2 plates were coated with protein G. Protein G was prepared at 5 μg/mL in 0.1 M NaHCO3 and 100 μL per well was added to the wells of microtitration plates and incubated overnight at 4° C. After discarding excess protein G solution from plates, each well was blocked with 200 μL 2YT for 1 hour at RT with agitation on an oscillating platform. Tris-buffered saline, pH 7.4/0.5% Tween 20 (TBS/Tween), was used with an automatic plate washer to wash the wells 4 times with 200 μL. One hundred μL human β2GPI-dependent antiphospholipid 6626, 6501, 6701, rabbit β2GPI-dependent antiphospholipid, or control normal IgG, diluted to 2.5 μg/mL with 2YT, was added to washed wells. The plate was incubated for 1 hour at room temperature on a rotating platform.
Phage to be tested by micropanning were obtained from the agar plates generated by biopanning. Each clone to be tested was transferred using sterile toothpicks to a separate well of a round-bottom 96-well microtitration plate (Corning, Corning, N.Y.) containing 200 μL 2YT/Tet per well and cultured overnight at 30° C. Following overnight incubation, phage cultures were centrifuged using a microtitration plate holder at 1300×g for 10 minutes at room temperature. Supernatants constituted the source of “neat” phage. The neat phage were diluted 1: 100-1:1000 and 100 μL was added to the plate containing protein G-bound β2GPI-dependent antiphospholipid antibody-6501 and normal IgG prepared as described above. The incubation of dilute phage with aPL antibody or control IgG was carried out for 2 hours at room temperature on a flat rotator. After 9 washes with TBS/Tween in an automated plate washer, the IgG-bound phage was eluted with 20 μL of 0.2 N HCl-glycine/0.1% BSA, pH 2.2. The elution incubation continued for 10 minutes at RT, during which time a new Corning microtitration plate was prepared containing 20 μL of freshly starved E. coli per well and kept chilled. One hundred forty μL of 29 mM Tris was added to the plate containing the phage eluates in order to neutralize the pH, following which 20 μL of phage suspension was transferred from each well to the corresponding well in the plate containing starved E. coli. After a 10 minute incubation at 37° C., 200 μL 2YT was added and incubation carried out an additional 30 minutes at 37° C. Using multichannel pipettors, 8 μL from each well was spotted on a large 2YT/Tet agar plate while retaining the original 8×12 well pattern and orientation from the last microtitration plate. After allowing the spots to dry for 30 minutes, the plate was incubated overnight at 30° C. The following day, colonies were semiquantitatively scored from 0 to 4+, with 0 symbolizing <10 colonies; 1+=10-30; 2+=30 colonies to 70% confluent; 3+=70%-90% confluent; 4+=confluent.
For Table 7A, the rabbit anti-human β2GPI was performed on two separate occasions. Mutations are listed with the original amino acid, the position number, and the identity of the amino acid at that position in the mutant. […] Non-mutated domain 1 have a score of 3+, while domain 5 phage gave a score of −. Silent mutations are not shown. […]

B1: 2B2: phage clone, domain 1 mutant V37E (protein)
chain: GRTCPKPDDLPFSTVVPLKTFYEPGEEITYSCKPGYESRGGMRKFICPLTGLWPINTLKCTPRV
As to B1, the μpan score (in experiment [1] (antibody 6501); in experiment [1] (antibody 6626); in experiment [1] (antibody 6701); with rabbit anti-human β2GPI (first (or only) value)) was 3 each time. Further, the Micropan score in experiment [1] (antibody 6226), in experiment [1] (antibody 6501), in experiment [1] (antibody 6632), in experiment [1] (antibody 6644), in experiment [1] (antibody 6701) and in experiment [1] (antibody 7008) was 4 throughout. The Micropan score in the experiment with rabbit anti-human β2GPI (1st column), in the experiment with rabbit anti-human β2GPI (2nd column), in the experiment on rabbit anti-human β2GPI (3rd column) and with rabbit anti-human β2GPI (4th column) was 4 in each case.

B2: 2D12: phage clone, domain 1 mutant F45L (protein)
chain: GRTCPKPDDLPFSTVVPLKTFYEPGEEITYSCKPGYVSRGGMRKLICPLTGLWPINTLKCTPRV
With B2, the μpan score in experiment [1] (antibody 6501) is reported as 3; in experiment [1] (antibody 6626), 2; in experiment [1] (antibody 6701), 2; in the experiment on rabbit anti-human β2GPI (first (or only) value) it was 3. Moreover, the Micropan score in experiment [1] (antibody 6226) came to 4; in experiment [1] (antibody 6501), 4; in experiment [1] (antibody 6632), 4; in experiment [1] (antibody 6644) it was 4; in experiment [1] (antibody 6701), 2; in experiment [1] (antibody 7008), 4. Besides, the Micropan score with rabbit anti-human β2GPI (1st column), with rabbit anti-human β2GPI (2nd column), in the experiment with rabbit anti-human β2GPI (3rd column) and in the experiment on rabbit anti-human β2GPI (4th column) was 4 each time.

B3: 2C3: phage clone, domain 1 mutant P54S (protein)
chain: GRTCPKPDDLPFSTVVPLKTFYEPGEEITYSCKPGYVSRGGMRKFICPLTGLWSINTLKCTPRV
Regarding B3, the μpan score in experiment [1] (antibody 6501) came to 1; in experiment [1] (antibody 6626), 1; in experiment [1] (antibody 6701), 1; in the experiment with rabbit anti-human β2GPI (first (or only) value) it was 3. In addition, the Micropan score in experiment [1] (antibody 6226) was 2; in experiment [1] (antibody 6501), 2; in experiment [1] (antibody 6632), 3; in experiment [1] (antibody 6644), 3; in experiment [1] (antibody 6701) it was 2; in experiment [1] (antibody 7008), 3. The Micropan score in the experiment with rabbit anti-human β2GPI (1st column) is given as 2; with rabbit anti-human β2GPI (2nd column) it was 4; with rabbit anti-human β2GPI (3rd column), 4; with rabbit anti-human β2GPI (4th column) it was 4.

B4: SE3: phage clone, domain 1 mutant T20I (protein)
chain: GRTCPKPDDLPFSTVVPLKIFYEPGEEITYSCKPGYVSRGGMRKFICPLTGLWPINTLKCTPRV
Consider B4, for which the Micropan score in experiment [1] (antibody 6226) came to 3; in experiment [1] (antibody 6501), 3; in experiment [1] (antibody 6632) it was 3; in experiment [1] (antibody 6644), 3; in experiment [1] (antibody 6701), 3; in experiment [1] (antibody 7008) it was 4. Further, the Micropan score with rabbit anti-human β2GPI (1st column), in the experiment on rabbit anti-human β2GPI (2nd column), in the experiment on rabbit anti-human β2GPI (3rd column) and in the experiment on rabbit anti-human β2GPI (4th column) was 4 throughout.

B5: A10: phage clone, domain 1 mutant D8G (protein)
chain: GRTCPKPGDLPFSTVVPLKTFYEPGEEITYSCKPGYVSRGGMRKFICPLTGLWPINTLKCTPRV
B5: the μpan score in experiment [1] (antibody 6501) is recorded as 2; in experiment [1] (antibody 6626) it was 2; in experiment [1] (antibody 6701), 2; in the experiment on rabbit anti-human β2GPI (first (or only) value), 2, 2; in the experiment with rabbit anti-human β2GPI (second value (second occasion)) it was 2, 2.

B6: B11: phage clone, domain 1 mutant M42K (protein)
chain: GRTCPKPDDLPFSTVVPLKTFYEPGEEITYSCKPGYVSRGGKRKFICPLTGLWPINTLKCTPRV
As for B6, the μpan score in experiment [1] (antibody 6501) stood at 3; in experiment [1] (antibody 6626), 3; in experiment [1] (antibody 6701), 3; in the experiment with rabbit anti-human β2GPI (first (or only) value), 3; with rabbit anti-human β2GPI (second value (second occasion)), 4. The Micropan score in experiment [1] (antibody 6226), in experiment [1] (antibody 6501), in experiment [1] (antibody 6632), in experiment [1] (antibody 6644), in experiment [1] (antibody 6701) and in experiment [1] (antibody 7008) was 4 in each case. For the same molecule, the Micropan score with rabbit anti-human β2GPI (1st column), with rabbit anti-human β2GPI (2nd column), in the experiment with rabbit anti-human β2GPI (3rd column) and in the experiment on rabbit anti-human β2GPI (4th column) was 4 throughout.

B7: 2D4: phage clone, domain 1 mutant M42T (protein)
chain: GRTCPKPDDLPFSTVVPLKTFYEPGEEITYSCKPGYVSRGGTRKFICPLTGLWPINTLKCTPRV
As for B7, the μpan score amounted to 2 in experiment [1] (antibody 6501), 1 in experiment [1] (antibody 6626), 3 in experiment [1] (antibody 6701) and 3 with rabbit anti-human β2GPI (first (or only) value). For the same molecule, the Micropan score in experiment [1] (antibody 6226) was determined as 3; in experiment [1] (antibody 6501), 4; in experiment [1] (antibody 6632), 4; in experiment [1] (antibody 6644), 4; in experiment [1] (antibody 6701) it was 4; in experiment [1] (antibody 7008), 4. The Micropan score with rabbit anti-human β2GPI (1st column), in the experiment with rabbit anti-human β2GPI (2nd column), in the experiment on rabbit anti-human β2GPI (3rd column) and with rabbit anti-human β2GPI (4th column) was 4 in each case.

B8: 2D9: phage clone displaying β2GPI domain 1 mutant T3P (protein)
chain: GRPCPKPDDLPFSTVVPLKTFYEPGEEITYSCKPGYVSRGGMRKFICPLTGLWPINTLKCTPRVAEPVESCLAKPHTENSFTNVWKDDKTLDRYANYEGCLWNATGVVVCTGDETQCYGTWVPIGLAIPENEGGGSEGGGSEGGGSEGGGTKPPEYGDTPIPGYTYINPLDGTYPPGTEQNPANPNPSLEESQPLNTFMFQNNRFRNRQGALTVYTGTVTQGTDPVKTYYQYTPVSSKAMYDAYWNGKFRDCAFHSGFNEDPFVCEYQGQSSDLPQPPVNAGGGSGGGSGGGSEGGGSEGGGSEGGGSEGGGSGGGSGSGDFDYEKMANANKGAMTENADENALQSDAKGKLDSVATDYGAAIDGFIGDVSGLANGNGATGDFAGSNSQMAQVGDGDNSPLMNNFRQYLPSLPQSVECRPYVFGAGKPYEFSIDCDKINLFRGVFAFLLYVATFMYVFSTFANILRNKES
In the case of B8, the μpan score was 3 in experiment [1] (antibody 6501), 2 in experiment [1] (antibody 6626), 3 in experiment [1] (antibody 6701) and 2 in the experiment with rabbit anti-human β2GPI (first (or only) value). The Micropan score in experiment [1] (antibody 6226) came to 4; in experiment [1] (antibody 6501), 4; in experiment [1] (antibody 6632) it was 3; in experiment [1] (antibody 6644), 4; in experiment [1] (antibody 6701) it was 4; in experiment [1] (antibody 7008), 4. The Micropan score in the experiment on rabbit anti-human β2GPI (1st column), with rabbit anti-human β2GPI (2nd column), in the experiment with rabbit anti-human β2GPI (3rd column) and in the experiment on rabbit anti-human β2GPI (4th column) was 4 in each case.
